According to paper PMC5686127, “Accessibility of the histone H3 tail in the nucleosome for binding of paired readers” (Nature Communications, 2017):

How the values were obtained:
CHD4 PHD1 (aa 362–417) = molecular target: T1, CHD4 PHD1 (aa 362–417) (human, UniProt Q14839 362-417); test: other fluorescence titration; intrinsic tryptophan fluorescence; H3 (1-12) peptide added to 0.5-1 uM CHD4 PHD construct; 25 °C, pH 7.5, 75 mM NaCl, 3 mM DTT; apparent; conditions: both partners purified
T1 construct: CHD4, human, first PHD finger, aa 362-417; Cloned into pGex6p1; also called first PHD finger of CHD4; source: E. coli BL21 DE3 pLysS, purified (glutathione Sepharose 4B, GST cleaved with Prescission protease)

CHD4 PHD2 (443–498) = molecular target: T2, CHD4 PHD2 (443–498) (human, UniProt Q14839 443-498); test: as above; conditions: both partners purified
T2 construct: CHD4, human, second PHD finger, aa 443-498; Cloned into pGex6p1; also called second PHD finger of CHD4; source: E. coli BL21 DE3 pLysS, purified (glutathione Sepharose 4B, GST cleaved with Prescission protease)
T2 sequence (Q14839 443-498): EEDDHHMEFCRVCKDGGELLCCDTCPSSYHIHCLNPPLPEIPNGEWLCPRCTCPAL

T1 sequence (Q14839 362-417): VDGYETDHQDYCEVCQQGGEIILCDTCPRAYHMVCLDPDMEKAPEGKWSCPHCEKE

- Kd (CHD4 PHD1 (aa 362–417)): 4000 nM
- Kd (CHD4 PHD2 (443–498)): 430 nM
B1: histone H3 peptide (aa 1–12) (peptide, UniProt P68431 2-13, looked up)
peptide: ARTKQTARKSTG
notes: histone H3, aa 1-12, unmodified; also called H3 (1–12) peptide; histone peptide; source: synthetic peptide (University of Colorado Denver Peptide Core Facility)
